From US20120135472

Molecular target: T1, small fragment of Nanoarchaeum equitans DNA polymerase (Neq S)
T1 chain: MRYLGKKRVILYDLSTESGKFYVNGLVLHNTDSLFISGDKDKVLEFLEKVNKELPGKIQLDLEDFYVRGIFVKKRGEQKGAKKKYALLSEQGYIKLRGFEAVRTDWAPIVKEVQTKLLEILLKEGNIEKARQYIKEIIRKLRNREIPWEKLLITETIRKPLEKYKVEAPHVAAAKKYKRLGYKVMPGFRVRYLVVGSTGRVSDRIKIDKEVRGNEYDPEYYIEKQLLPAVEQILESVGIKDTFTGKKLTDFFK

B1: large fragment of Nanoarchaeum equitans DNA polymerase (Neq L) (protein)
chain: MLHQLPTMVVEEKAVKEEEGYSVLKCYWINIENTPLDEVILIGKDENNRACEVIIPYKWYFYFEGDIKDLEEFANNKKIKIEYTKEQKKYIEKPKDVYKVYVLHKHYPILKEFIKEKGYKKYETDINVYRKFLIDKGIEPFEWFEVEGKILLSTSNKVRIKAQSIKRLYEKTKPSVLAFDIEVYSEAFPNPEKDKIISIALYGDNYEGVISYKGEPTIKVNTEYELIEKFVEIIESLKPDIIVTYNGDNFDIDFLVKRASLYNIRLPIKLVNKKEPTYNFRESAHVDLYKTITTIYKTQLSTQTYSLNEVAKEILGEEKIYDYENMLYDWAIGNYNKVFEYNLKDAELTYKLFKYYENDLLELARLVNQPLFDVSRFSYSNIVEWYLIKKSRKYNEIVPNKPKMEEVERRKLNTYAGAFVYEPKPGLYENLAVLDFASLYPSIILEHNVSPGTIYCEHDDCKQNGVEAIINNEKKYVWFCKKVKGFIPTVLEHLYTKRLELKRKLKELDRDSEEYKIINAKQAVLKIIINATYGYMGFPNARWYCIDCAAAVAAWGRKYINYILKRAEEEGFKVIYGDSIMDTEIEVIENGIKKKEKLSDLFNKYYAGFQIGEKHYAFPPDLYVYDGERWVKVYSIIKHETETDLYEINGITLSANHLVLSKGNWVKAKEYENKNN
- activity of DNA polymerase (3H-dTTP incorporation, relative to 20 pmoles of Neq P = 100%): The activity of DNA polymerase of the solution was very low after the protein trans-splicing of Neq L and Neq S at 60° C., but was maximized at 95 °C
